T1: human ICOS (human, UniProt Q9Y6W8 21-199)
T1 construct: The cell that carries it is named under assay; also called huICOS; CD278
T1 sequence: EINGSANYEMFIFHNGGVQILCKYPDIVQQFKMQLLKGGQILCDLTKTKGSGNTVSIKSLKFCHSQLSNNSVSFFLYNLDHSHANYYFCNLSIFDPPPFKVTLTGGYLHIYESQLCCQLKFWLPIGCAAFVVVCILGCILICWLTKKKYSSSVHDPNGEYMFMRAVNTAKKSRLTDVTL

B1: Molecule 18 (rbIgG of 1138) (antibody, V domains shown)
VH: QSLEESGGDLVKPGASLTLTCTASGFDLSSYYYMCWVRQAPGKGLEWIACIYADIYGGTTHYASWAKGRFTISKTSSTTVTLQMTSLTAADTATYFCAREDGSRYGGSGYYNLWGPGTLVTVSS
VL: ALVMTQTPSSVSAAVGGTVTINCQASQNIYSNLAWYQQKPGQPPKLLIYAASYLTSGVSSRFKGSGAGTQFTLTISGVECADAATYYCQQGHTTDNIDNAFGGGTEVVVKG
notes: Rabbit IgG format; also called ICOS (1138); clone 1138
B2: Molecule 8 (rbIgG of 1167) (antibody, V domains shown)
VH: EVRLLESGGGLVQPGGSLRLSCAASGFTFNTYAVHWVRQAPGKGLEWVSGIGGSGVRTYYADSVKGRLTISRDNSKNTLYLQMNSLRAEDTAIYFCAKDIYVADFTGYAFDIWGQGTMVTVSS
VL: DIQMTQSPSSVSASVGDRVTITCRASQGINNFLAWYQQKPGKAPKLLIYDASSLQSGVPSRFAGSGSGTDFTLTISSLQPEDFATYYCQQYNFYPLTFGGGTMVEIKR
notes: Rabbit IgG format, from transgenic rabbit; also called ICOS (1167); clone 1167
B3: Molecule 20 (rbIgG of 1143) (antibody, V domains shown)
VH: QSLEESGGDLVKPGASLTLTCKASGFDFSSAYDMCWVRQAPGKGLEWIGCVYYGDGITYYATWAKGRFTISKTSSTTVPLQMTSLTAADTATYFCARGAFLGSSYYLSLWGQGTLVTVSS
VL: AIDMTQTPASVEAAVGGTVTINCQASENIYNWLAWYQQKPGQPPKLLIYDASKLASGVPSRFSASGSGTQFTLTISAVECADAATYYCQQAYTYGNIDNAFGGGTEVVVSG
notes: Rabbit IgG format; also called ICOS (1143); clone 1143

Key:
human ICOS [1] = molecular target: T1, human ICOS; assay: flow cytometry, CHO cells expressing human ICOS
Method: (§1) Briefly, suspension cells were harvested, counted, checked for viability and re-suspended at 1 million cells per ml in FACS buffer (PBS with 0.1% BSA). […] The staining was fixed for 20 min at 4° C. in the dark, using 75 μl of 1% PFA in FACS buffer per well.
(§2) Fluorescence was analyzed by FACS using a FACS Fortessa (Software FACS Diva). Binding curves and EC50 values were obtained using GraphPadPrism 7.

human ICOS [2] = molecular target: T1, human ICOS; assay: cell-based or functional assay
human ICOS [3] = molecular target: T1, human ICOS; assay: flow cytometry, SR cells
Method: as §1
(§3) In addition, binding of the above molecules to human SR cells (ATCC® CRL-2262) was performed as described above apart from the following modifications: SR cells were re-suspended at 2 million cells per ml in FACS buffer (BD).
as §2

[4] = molecular target: T2, recombinant monomeric human ICOS Fc(kih) Avi tag (human, UniProt P0DOX5 223-449 = IgG part, biotin on the Avi tag in the ligand-blocking and the SPR competition assays); assay: SPR competition on human ICOS Fc(kih); second injection 100 nM; competitor (row): Molecule 14
T2 construct: also called recombinant human ICOS; biotinylated human ICOS Fc(kih)
Method: (§4) Immobilization levels up to 600 resonance units (RU) were used. […] Bulk refractive index differences were corrected for by subtracting the response obtained on reference flow cell.
(§5) The SPR experiments were performed on a Biacore T200 at 25° C. with HBS-EP as running buffer (0.01 M HEPES pH 7.4, 0.15 M NaCl, 3 mM EDTA, 0.005% Surfactant P20, Biacore, Freiburg/Germany).

human ICOS [5] = molecular target: T1, human ICOS; assay: flow cytometry, ICOS+ CHO cells, 120 nM anti-ICOS IgG, no ICOSL
Method: (§6) Briefly, cells were harvested, counted, checked for viability and re-suspended at 1 million cells per ml in FACS buffer (PBS with 0.1% BSA). […] Cells were washed again twice with cold PBS 0.1% BSA and then re-incubated and fixed for 20 min at 4° C. in the dark, using 75 μl of 1% PFA in FACS buffer per well. Fluorescence was analyzed by FACS using a FACS Fortessa (Software FACS Diva. Data was analyzed using GraphPadPrism 7.

[6] = molecular target: T2, recombinant monomeric human ICOS …; assay: SPR (Biacore T200, 25 C), antibody captured on anti-rabbit Fc, ICOS Fc(kih) 7.5-600 nM as analyte, 1:1 Langmuir fit
Method: All SPR experiments were performed on a Biacore T200 at 25° C. with HBS-EP as running buffer (0.01 M HEPES pH 7.4, 0.15 M NaCl, 3 mM EDTA, 0.005% Surfactant P20, Biacore, Freiburg/Germany).
Setup 1: Anti-rabbit Fc antibody (Jackson ImmunoResearch, Cambridgeshire/UK) was directly coupled on a CM5 chip at pH 4.5 using the standard amine coupling kit (Biacore, Freiburg/Germany). The immobilization level was approximately 9000 RU. […] The dissociation was monitored for 720 seconds. Bulk refractive index differences were corrected for by subtracting the response obtained on reference flow cell.

human ICOS [7] = molecular target: T1, human ICOS; assay: flow cytometry, MFI(ICOSL+anti-ICOS)/MFI(anti-ICOS only)*100 at 120 nM; competitor ICOSL
Method: as §6

[8] = molecular target: T2, recombinant monomeric human ICOS …; assay: SPR competition on human ICOS Fc(kih); second injection 100 nM; competitor (row): Molecule 8
Method: as §4, §5

[9] = molecular target: T2, recombinant monomeric human ICOS …; assay: SPR competition on human ICOS Fc(kih); second injection 100 nM; competitor (row): Molecule 20
Method: as §4, §5

human ICOS [10] = molecular target: T1, human ICOS; assay: flow cytometry on CHO cells stably expressing human ICOS, PE-labelled secondary antibody, median fluorescence intensity (MFI)
Method: as §1, §2

human ICOS [11] = molecular target: T1, human ICOS; assay: flow cytometry, ICOS+ CHO cells, 120 nM anti-ICOS IgG pre-bound, then ICOSL (competitor) 120 nM
Method: as §6

human ICOS [12] = molecular target: T1, human ICOS; assay: flow cytometry on SR cells expressing human ICOS, PE-labelled secondary antibody, MFI
Method: as §1, §3, §2

[13] = molecular target: T2, recombinant monomeric human ICOS …; assay: SPR competition on human ICOS Fc(kih); second injection 100 nM; competitor (row): Molecule 18
Method: as §4, §5

Row | Binder | EC50 (human ICOS [1]) [nM] | EC50 of activation of Jurkat-NFAT reporter cell line (luminescence) (human ICOS [2]) [nM] | EC50 (human ICOS [3]) [nM] | binding of the second injection (0 = no binding; 1 = binding) [4] | MFI (A488), IgG only (human ICOS [5]) [MFI] | Kd [6] [nM] | koff [6] [s⁻¹] | kon [6] [M⁻¹ s⁻¹] | t1/2 [6] [min] | Relative Binding (%) (human ICOS [7]) | binding of the second injection (0 = no binding; 1 = binding) [8] | binding of the second injection (0 = no binding; 1 = binding) [9] | EC50 (read off the curve) (human ICOS [10]) [nM] | MFI (A488), IgG + ICOSL (human ICOS [11]) [MFI] | EC50 (read off the curve) (human ICOS [12]) [nM] | binding of the second injection (0 = no binding; 1 = binding) [13]
1 | B1 | 0.00192 | 0.09 | 0.00216 | 1 | 6320 | 0.7 | 0.00026 | 400000 | 43.7 | 98.2 | 1 | 1 | ~2 | 6210 | ~2 | –
2 | B2 | 0.00069 | 0.13 | 0.00113 | 0 | 7800 | 76 | 0.0061 | 81000 | 1.9 | 98.2 | – | 0 | ~0.7 | 7660 | ~1 | 1
3 | B3 | 0.0003 | 0.02 | 0.0004 | 0 | 6320 | 0.1 | 2.3e-05 | 170000 | 498 | 100 | 0 | – | ~0.3 | 6340 | ~0.4 | 1
